Measured values taken from PMC10269165 (Antimicrobial Agents and Chemotherapy, 2023).

Tests used:
[1] = system: PMT-complemented mutant yeast; assay: Growth inhibition of complemented yeast (statement on PMT-complemented strains together); assay type: cell-based, Saccharomyces cerevisiae; conditions: various concentrations
Description: (§1) To determine the effect of PMT inhibitors on the growth of PMT- and LacZ-complemented pem1Δpem2Δ S. cerevisiae, the yeast cells were first starved of choline as described above, and the cells were diluted to an OD600 of ~0.6. The PMT-complemented yeast cells were cultured in SG medium (3.4g/L yeast nitrogen base without amino acids, 2% galactose, 30 mg/L histidine, 100 mg/L leucine, 100 mg/L adenine, and 50 mg/L tryptophan) supplemented with 1 mM ethanolamine hydrochloride, while the LacZ-complemented yeast cells were cultured in SG medium supplemented with 1 mM choline chloride. Compounds that depicted cross-inhibitory activity against PMT proteins in vitro were added at various concentrations to the cultures. As a negative control, DMSO (at a final concentration not exceeding 2% [vol/vol]) was added to yeast cultures designated control cultures. The cultures were incubated at 30°C with shaking at 275 rpm for 4 days. On a daily basis during the course of culture, 200-μL portions of culture aliquots were taken, and their OD600s were measured using a microplate reader. In preliminary work, we had observed that the growth of PMT- and LacZ-complemented pem1Δpem2Δ S. cerevisiae plateaued at 3 to 4 days of culture. Therefore, to determine the inhibitory effect of nematode PMT inhibitors on the growth of PMT- and LacZ-complemented pem1Δpem2Δ S. cerevisiae, measurements taken on day 3 were used. The results were presented as percentage of growth rate using the following formula: PGR = growth rate (plus inhibitor)/growth rate (minus inhibitor) × 100 where the percent growth rate (PGR) is the growth rate of inhibitor-treated PMT- or LacZ- complemented Pem1Δpem2Δ S. cerevisiae, considering the growth rate of untreated PMT- or LacZ- complemented Pem1Δpem2Δ S. cerevisiae is 100%; the growth rate = ΔA600^Day 3/ΔA600^Day 0; ΔA600^Day 0 is the absolute value of A600 of PMT- or LacZ- complemented pem1Δ/pem2Δ S. cerevisiae at day 0, which equals the A600 of the culture minus the A600 of the growth medium only; ΔA600^Day 3 is the absolute value of the A600 of PMT- or LacZ complemented pem1Δ/pem2Δ S. cerevisiae at day 3, which equals the A600 of the culture at day 3 minus the A600 of growth medium only; the growth rate (plus inhibitor) is the growth rate of PMT- or -LacZ complemented pem1Δpem2Δ S. cerevisiae in the presence of test compound; and the growth rate (minus inhibitor) is the growth rate of the PMT- or LacZ complemented pem1Δ/pem2Δ S. cerevisiae in the absence of test compound, but with a volume of DMSO equal to that of compound added in the treated culture. The dose-response curves were generated with GraphPad Prism software and IC50 concentrations of the compounds in PMT- and LacZ-complemented yeast cells derived.

[2] = system: LacZ-complemented pem1Δ/pem2Δ S. cerevisiae; assay: Growth inhibition of complemented yeast; assay type: cell-based, Saccharomyces cerevisiae; conditions: medium with choline
Description: as §1

[3] = target: AcPMT1 (Ancylostoma duodenale, UniProt A0A0C2DEB6); assay: PMT enzyme kinetics, fluorescence methyltransferase assay; assay type: biochemical; conditions: on phosphoethanolamine
Description: (§2) We customized a commercial methyltransferase HT activity assay kit (ENZO) for use of recombinant PMT proteins as enzymes, S-adenosyl-L-methionine (SAM) as the methyl donor, and PE as the substrate, as reported previously ([27]). […] Briefly, the reaction mixture contained 2.5 μL of the kit SAM-free methyltransferase reaction buffer, 3 μL of 10 mM PE solution (pH 7.5), 15 μL of 1 mM SAM solution (pH 7.8), and 1× transferase assay buffer to a final volume of 25 μL. Various concentrations (25-μL total volume) of recombinant PMT protein were added to reactions.
(§3) To determine the enzyme kinetic parameters on SAM, fixed concentrations of PMT recombinant proteins (between 15 and 100 ng/μL, depending on the derived optimal concentration) and PE (200 μM) were used in the reactions, with various concentrations of SAM (0 to 160 μM). On the other hand, to determine the enzyme kinetic parameters on PE, fixed concentrations of PMT recombinant proteins (between 15 and 100 ng/μL, depending on the derived optimal concentration) and SAM (100 μM) were used, with various concentrations of PE (0 to 250 μM).
(§4) For normalization, instead of purified protein, 25 μL of 100 μM S-(5′-adenosyl)-L-homocysteine (SAH) as a positive control, 25 μL of dialysis buffer as a negative control, and 25 μL of 1× transferase assay buffer as a blank control were added to the respective reaction mixtures. The reactions were prepared in triplicate wells using black flat-bottomed 96-well plates. Detection buffer (100 μL) was added into each reaction, yielding a final reaction volume of 150 μL. The plates were covered in aluminum foil and incubated at room temperature with shaking for 30 min, and fluorescence read at 380EX/520EM using a SpectraMax Gemini EM microplate reader (Molecular Devices). Sample readouts were normalized with positive and negative controls.

[4] = target: HcPMT1 (Haemonchus contortus, UniProt U5HK46); assay: as above; assay type: biochemical; conditions: on phosphoethanolamine
Description: as §2, §3, §4

[5] = target: AsPMT (Ascaris suum, UniProt F1L4B9); assay: as above; assay type: biochemical; conditions: on phosphoethanolamine
Description: as §2, §3, §4

[6] = target: DvPMT1 (Dictyocaulus viviparus, UniProt A0A0D8Y714); assay: as above; assay type: biochemical; conditions: on phosphoethanolamine
Description: as §2, §3, §4

[7] = target: OdPMT (Oesophagostomum dentatum, UniProt A0A0B1TAL6); assay: as above; assay type: biochemical; conditions: on phosphoethanolamine
Description: as §2, §3, §4

[8] = target: TcPMT (Toxocara canis, UniProt A0A0B2VTW9); assay: as above; assay type: biochemical; conditions: on phosphoethanolamine
Description: as §2, §3, §4

[9] = substrate: C[S+](CC[C@H](N)C(=O)[O-])C[C@H]1O[C@@H](n2cnc3c(N)ncnc32)[C@H](O)[C@@H]1O; assay: as above; assay type: biochemical, Dictyocaulus viviparus; conditions: other: on S-adenosyl-L-methionine
Description: as §2, §3, §4

[10] = substrate: C[S+](CC[C@H](N)C(=O)[O-])C[C@H]1O[C@@H](n2cnc3c(N)ncnc32)[C@H](O)[C@@H]1O; assay: as above; assay type: biochemical, Oesophagostomum dentatum; conditions: other: on S-adenosyl-L-methionine
Description: as §2, §3, §4

[11] = substrate: C[S+](CC[C@H](N)C(=O)[O-])C[C@H]1O[C@@H](n2cnc3c(N)ncnc32)[C@H](O)[C@@H]1O; assay: as above; assay type: biochemical, Haemonchus contortus; conditions: other: on S-adenosyl-L-methionine
Description: as §2
(§5) To determine the enzyme kinetic parameters on SAM, fixed concentrations of PMT recombinant proteins (between 15 and 100 ng/μL, depending on the derived optimal concentration) and PE (200 μM) were used in the reactions, with various concentrations of SAM (0 to 160 μM). […]
as §4, with “The reactions were prepared in triplicate wells using black flat-bottomed 96-well plates. Detection buffer (100 μL) was added into each reaction, yielding a final reaction volume of 150 μL.” left out

[12] = substrate: C[S+](CC[C@H](N)C(=O)[O-])C[C@H]1O[C@@H](n2cnc3c(N)ncnc32)[C@H](O)[C@@H]1O; assay: as above; assay type: biochemical, Ancylostoma duodenale; conditions: other: on S-adenosyl-L-methionine
Description: as §2, §5
as §4, with “The reactions were prepared in triplicate wells using black flat-bottomed 96-well plates. Detection buffer (100 μL) was added into each reaction, yielding a final reaction volume of 150 μL.” left out

[13] = substrate: C[S+](CC[C@H](N)C(=O)[O-])C[C@H]1O[C@@H](n2cnc3c(N)ncnc32)[C@H](O)[C@@H]1O; assay: as above; assay type: biochemical, Toxocara canis; conditions: other: on S-adenosyl-L-methionine
Description: as §2, §3, §4

Sequence of AsPMT (F1L4B9 entry or part of it): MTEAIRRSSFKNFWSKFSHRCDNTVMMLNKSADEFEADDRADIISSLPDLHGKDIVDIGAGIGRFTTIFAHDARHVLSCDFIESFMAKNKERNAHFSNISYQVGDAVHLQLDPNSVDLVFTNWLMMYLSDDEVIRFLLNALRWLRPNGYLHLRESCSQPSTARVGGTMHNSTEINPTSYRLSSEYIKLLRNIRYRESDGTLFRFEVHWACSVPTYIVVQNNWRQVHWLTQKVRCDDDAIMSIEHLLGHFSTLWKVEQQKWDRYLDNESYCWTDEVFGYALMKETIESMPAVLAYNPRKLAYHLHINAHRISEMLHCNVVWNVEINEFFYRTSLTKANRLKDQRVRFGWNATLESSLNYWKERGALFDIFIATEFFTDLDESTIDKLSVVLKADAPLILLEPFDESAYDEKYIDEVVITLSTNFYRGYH

Molecule: CC[C@H]1NC(=O)[C@@H](NC(=O)c2ncccc2O)[C@@H](C)OC(=O)[C@H](c2ccccc2)NC(=O)[C@@H]2CC(=O)CCN2C(=O)[C@H](Cc2ccccc2)N(C)C(=O)[C@@H]2CCCN2C1=O [NSC177858]
- effect on the growth of PMT-complemented mutant yeast [1]: concentration-dependent inhibitory effect
- effect on LacZ-expressing mutant yeast [2]: no or negligible inhibitory effect

Molecule: NCCOP(=O)(O)O [phosphoethanolamine]
- kcat [3]: 7,071.00 ± 1,141.00 min^−1
- Km [4]: 73.4 ± 54.9 µM
- kcat [4]: 1,066.30 ± 72.70 min^−1
- Km [5]: 99.9 ± 36.6 µM
- kcat [5]: 3.2383 ± 0.49 s⁻¹
- Km [6]: 308 ± 41.7 µM
- kcat [6]: 16.113 ± 1.61 s⁻¹
- Km [7]: 81 ± 12.8 µM
- kcat [7]: 5.5833 ± 0.3603 s⁻¹
- Km [8]: 85 ± 77.8 µM
- kcat [8]: 10.412 ± 3.6983 s⁻¹

B1: DvPMT1 (Dictyocaulus viviparus) (protein)
chain: MSQGMRHADAVIYGEYDNGRRMKENELKGEHIKNYRTTYDENSFNNTMAVEVRRDLFKTFWDRYSDKPDTNSMMLNHTANDLDASDRADILSSLPHLGNKDVVDIGAGIGRFTTVLANTARWVHSTDFIESFIAKNQERNAHLGNISYQIGDAVNLQMNERSVDLVFTNWLMMYLSDHEVIEFLFNAMRWLRPDGYLHLRESCSEPSTACSKTATMHSSAEANPTHYRFSSLYIKLLRTIRYRDNSGKLWKFDVQWSCSVPTYIQRSNNWRQVHWLTRKVPANNGDTDTSISLLLNLFSQIWPAEQVEWDLKLNIESYVWTDRVFSNAINDEVVPRNGTALVFTPRKRSPYLHVNSHLLAEKFTCNVWTVETNEYYYRTSLTKANHEKNHRVRFGWNESLTSSIDYWSQRDASFDCLISTELLSTNSDDEIKRITRMIGCGFKHVNILDVTNDSRTAEVMFYSEHSINAEPLGCTFLLISATL
- Km [9]: 35.02 ± 5.05 µM
- Vmax [9]: 0.445 µmol/min/mg
- kcat [9]: 3.96 ± 0.214 s⁻¹
- kcat/Km [9]: 113000 M⁻¹ s⁻¹

B2: OdPMT (Oesophagostomum dentatum) (protein)
chain: MIFQKRFTTVLAETARWVHSTDFIESFIAKNQERNAHLGNISYQIGDAVHLQMDEKSVDLVFTNWLMMYLSDREVIEFLFNAMRWLRADGYMHLRESCSEPSTGRSKSATMHTSAEANPTHYRFSSLYIKLLRALRYQDSDGKVWRFDVQWSCSVPTYIRFFSETWRAEQIAWDAKLDKEQYVWTDKIFSNVLDSAVVPKNSTAYVFTPRRRSPYLHVNSHLLADKFTCNVWNVELNENFYRTSLTKANNQKDQRVRFGWNETLASSIDYWTQRDGSFDCLIATELLSTSDDESIKSIASIMKPEAKCVLLEPVDEVNEAVIKARMSSCGFKNVSVMDVTEDCKAAEAAYASDHNLQIDPSNCSYVLINASL
- Km [10]: 48.95 ± 7.07 µM
- Vmax [10]: 3.13 ± 0.204 µmol/min/mg
- kcat [10]: 45.4 ± 2.96 s⁻¹
- kcat/Km [10]: 927000 M⁻¹ s⁻¹

B3: HcPMT1 (Haemonchus contortus) (protein)
chain: MTAEVRRDSFKTFWDKYSDKPDTNSMMLNQTAQDLEASDRADILSSLPHLTNKDVVDIGAGIGRFTTVLAETARWVLSTDFIESFIEKNQERNAHMGNISYQIGDAVHLQMDEKSVDLVFTNWLMMYLSDREVIEFLLNAMRWLRADGYIHLRESCSEPSTGRLKTATMHSAVDANPTHYRFSSLYIKLLRAIRYRDSDGKMWKFDVQWSCSVPTYIRRCNNWRQVHWLTKKVPAVGDEETSVDDLLNLFSQIWPAEQKTWDEKLDNEKYSWTDKIFSNAIDDEVVPKNSTAYVFTPRQRSPFLHVNSHLLAEKFTCNVWNVETKEYLYRTSLTKANNQKDQRVRFGWNESLSSSIDYWNQRDASFDCMVATELLATCDDESINSIASIMKPEAKVVLLEPVSGIDETSVRQRMTTCGFKNITIVDVTQESLNAEVSFIKDHNLDVELSGCNYLLIKASL
- Km [11]: 18.34 ± 3.80 µM
- kcat/Km [11]: 3.91e+06 M⁻¹ s⁻¹

B4: AcPMT1 (Ancylostoma duodenale) (protein)
chain: MEERSVDLVFTNWLMMYLSDREVIEFLFNAMRWLRADGYMHLRESCSEPSTGRAKSSTMHSNTDSNPTHYRFSSLYIKLLRAIRYRDNDGKVWRFDVQWSCSVPTYIKRSNNWRQVHWLTKKVSADGDDETTINDLLKLFSQTWYTEQVAWDAKLDNEKYVWTDKIFSNAIDNEVVPKNSTAYVFTPRKMSPYLHINSHLLAEKFTCNVWNVEMNENFYRTSLTKANNQKDQRVRFGWNESLASSIDYWTQRDASFDCLIGTELLSTNGDESIKRIASIMKPEAKIVLLEPVDDVAEQAIKERMASCGFKNISVVDVTEECKAAEAAYANDHNLAFLFIEL
- Km [12]: 27.33 ± 3.58 µM
- kcat/Km [12]: 1.98e+06 M⁻¹ s⁻¹

B5: TcPMT (Toxocara canis) (protein)
chain: MPRLNQKAKTFRDFLDTTQYTDEGIRAYEWIFGENFISPGGYNENLLVLKRLGELKPDSRMLDIGVGIGGGARQAAKEFGLLVLGIDISANMLSIAMDRLQVEKDTRIRYQICNAVDYQFPSNSFDYIVSRDGLHHNEHIDIVMKNIFKWLKPGGKALITIYGKGHGAPKTKFQAYVENRKYHLKTLEQMVQVTKDAGFENVQGTNLTKRLRDILIEERTRALARKGRFLEDFSEETFNSLLEGWNDKIDFIDDDNQTWLQIIATKPL
- Km [13]: 20.31 ± 2.23 µM
- Vmax [13]: 1.08 ± 0.0324 µmol/min/mg
- kcat [13]: 10.9 ± 0.327 s⁻¹
- kcat/Km [13]: 539000 M⁻¹ s⁻¹
